The values below come from patent US20230058489A1, “COMBINATION COMPRISING A TIM-3 INHIBITOR AND A HYPOMETHYLATING AGENT FOR USE IN TREATING MYELODYSPLASTIC SYNDROME OR CHRONIC MYELOMONOCYTIC LEUKEMIA” (Novartis AG, priority 2020, published 2023).

“Also recorded” adds a separate entry of the source.

Data set [1] has as its system hematological malignancies. As to the kind of experiment: Phase Ib study CPDR001X2105 (NCT03066648), MBG453/sabatolimab single agent or with decitabine or azacitidine, all disease cohorts. It is filed as in vivo. The source says:
In study [CPDR001X2105], as of 26 Jul. […] The most frequently reported adverse event attributed to study treatment was a rash in two subjects (8%). All other adverse events attributed to study treatment were single occurrences. There were no DLTs during the first cycle. […] There were no DLTs during the first 2 cycles.
Study Design and Methods: This is a phase Ib, open-label, multicenter, dose-escalation study of sabatolimab+HMA (decitabine [Dec] or azacitidine [Aza]) in patients (pts) with AML or HR-MDS (NCT03066648; CPDR001X2105). Patients were adults with newly diagnosed (ND) or relapsed/refractory (R/R; ≥1 prior therapy) AML or IPSS-R high- or very high-risk MDS; patients with chronic myelomonocytic leukemia (CMML) were also eligible. Patients were HMA naive and ineligible for intensive chemotherapy. Escalating dose cohorts of IV sabatolimab examined were: 240 or 400 mg Q2W (D8, D22) or 800 mg Q4W (D8) combined with Dec (20 mg/m^2; IV D1-5) or Aza (75 mg/m^2; IV/SC D1-7) per 28-day cycle. Primary objectives included safety/tolerability; secondary objectives included preliminary efficacy and pharmacokinetics.

Data set [2] can be described thus: Pharmacokinetics of MBG453 in studies CMBG453X2101 and CPDR001X2105. In kind it is in vivo, human. The procedure: At lower doses (at 80 mg and below for Q2W dosing or at 240 mg and below for Q4W dosing), the PK was nonlinear, with faster elimination at lower concentrations. PK appeared linear with an approximate proportional dose-exposure (AUC and Cmax) relationship at doses of 240 mg and above for Q2W dosing and at doses of 800 mg and above for Q4W dosing. […] The dose of 800 mg Q4W has similar AUCtau as 400 mg Q2W at the steady state.

The test system of data set [3] is TIM-3-overexpressing Raji cells. Nature of the data set: Antibody-dependent cellular phagocytosis (ADCP) by PMA-differentiated THP-1 cells, flow cytometry. It is filed as cell-based, human. The settings on record: E:T ratio 1:5, 30-45 minutes, FIG. 2. As for the experimental part: THP-1 effector cells (a human monocytic AML cell line) were differentiated into phagocytes by stimulation with 20 ng/ml phorbol 12-myristate 13-acetate (PMA) for two to three days at 37° C., 5% CO2. PMA-stimulated THP-1 cells were washed in FACS Buffer (PBS with 2 mM EDTA) in the flask and then detached by treatment with Accutase (Innovative Cell Technologies). The target TIM-3-overexpressing Raji cells were labelled with 5.5 μM CellTrace CFSE (ThermoFisherScientific) as per manufacturer's instructions. […] Co-cultures were incubated for 30-45 minutes at 37° C., 5% CO2. Phagocytosis was then stopped with a 4% Formaldehyde fixation (diluted from 16% stock, ThermoFisherScientific), and cells were stained with an APC-conjugated anti-CD11c antibody (BD Bioscience). ADCP was measured by a flow cytometry based assay on a BD FACS Canto II. Phagocytosis was evaluated as a percentage of the THP-1 cells double positive for CFSE (representing the phagocytosed Raji cell targets) and CD11c from the THP-1 (effector) population. […] Negative control IgG4 antibody is shown in triangles.
For orientation: Flow cytometry measures light scatter and fluorescence of single cells or particles in a stream.

The target of another data set is T1, FcγR1a (CD64) (Homo sapiens, UniProt P12314).
T1 construct: host or cells: Jurkat cells, co-cultured with TIM-3-expressing Raji target cells
T1 sequence (P12314 16-374): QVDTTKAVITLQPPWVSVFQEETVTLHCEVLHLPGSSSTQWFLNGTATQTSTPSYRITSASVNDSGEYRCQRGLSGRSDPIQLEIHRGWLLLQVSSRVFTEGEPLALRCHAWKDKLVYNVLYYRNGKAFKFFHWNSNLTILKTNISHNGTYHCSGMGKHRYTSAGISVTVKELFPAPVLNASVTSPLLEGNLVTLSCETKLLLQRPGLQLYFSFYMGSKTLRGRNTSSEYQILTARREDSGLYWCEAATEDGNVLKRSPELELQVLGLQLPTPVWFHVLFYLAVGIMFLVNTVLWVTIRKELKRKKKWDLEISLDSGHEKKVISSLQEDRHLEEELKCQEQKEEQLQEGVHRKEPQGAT
Nature of the data set: Jurkat-FcγR1a NFAT luciferase reporter co-culture with TIM-3+ Raji cells. In kind it is cell-based. The settings on record: 500 ng/ml to 6 pg/ml, E:T 6:1, 6 hours, FIG. 3. As for the experimental part:
The TIM-3-expressing Raji cells were used as target cells in a co-culture assay with engineered effector Jurkat cells stably transfected to overexpress FcγR1a (CD64) and a luciferase reporter gene under the control of an NFAT (nuclear factor of activated T cells) response element (NFAT-RE; Promega). […] The plate was then centrifuged at 300×g for 5 minutes at room temperature at the assay start and incubated for 6 hours in a 37° C., 5% CO2 humidified incubator. The activation of the NFAT dependent reporter gene expression induced by the binding to FcγR1a was quantified by luciferase activity after cell lysis and the addition of a substrate solution (Bio-GLO).
On the technique in general: A reporter such as luciferase makes a cellular process visible.

A further data set concerns THP-1 AML cells. Nature of the data set: Co-culture of THP-1 cells with anti-CD3 activated PBMCs, Incucyte killing assay. The settings on record: 1 μg/mL, THP-1 cells pre-treated with decitabine (250 or 500 nM, 5 days), FIG. 4. It is filed as cell-based, human. The procedure:
THP-1 cells were plated in complete RPMI-1640 (Gibco) media (supplemented with 2 mM glutamine, 100 U/ml Pen-Strep, 10 mM HEPES, 1 mM NaPyr, and 10% fetal bovine serum (FBS)). Decitabine (250 or 500 nM; supplemented to media daily for five days) or DMSO control were added for a 5-day incubation at 37° C., 5% CO2. Two days after plating THP-1 cells, healthy human donor peripheral blood mononuclear cells (PBMCs; Medcor) were isolated from whole blood by centrifugation of sodium citrate CPT tubes at 1,800×g for 20 minutes. At the completion of the spin, the tube was inverted 10 times to mix the plasma and PBMC layers. Cells were washed in 2× volume of PBS/MACS Buffer (Miltenyi) and centrifuged at 250×g for 5 minutes. Supernatant was aspirated, and 1 mL of PBS/MACS Buffer was added following by pipetting to wash the cell pellet. 19 mL of PBS/MACS Buffer were added to wash, followed by a repeat of the centrifugation. Supernatant was aspirated, and the cell pellet was resuspended in 1 mL of complete media, followed by pipetting to a single cell suspension, and the volume was brought up to 10 mL with complete RPMI. 100 ng/mL anti-CD3 (eBioscience) was added to the media for a 48-hour stimulation at 37° C., 5% CO2. After 5 days culture with decitabine or DMSO, THP-1 cells were harvested and labeled with CellTracker™ Deep Red Dye (ThermoFisher) following manufacturer's instructions.

Turning to “MBG453: high-affinity, ligand-blocking, humanized anti-TIM-3 IgG4 antibody, disclosed in WO2015/117002”, the “adverse event attributed to study treatment: rash” value in data set [1] (MBG453 single agent, 26 subjects (two subjects)) was determined as 8%. The “incidence of any adverse event attributed to study treatment” value in data set [1] (MBG453 single agent, 26 subjects, as of 26 Jul. 2019) was at most 10%. Also, in data set [1] (as of 26 Jul. 2019), the “discontinuation of study treatment due to treatment-related AEs” value was “No subjects discontinued”. Further, the DLTs result in data set [1] (during the first cycle, single agent) is “no DLTs”. The “PK linearity, dose-exposure (AUC and Cmax) relationship” value in data set [2] (240 mg and above for Q2W dosing, 800 mg and above for Q4W dosing) was “linear”. The PK linearity entry in data set [2] (at 80 mg and below for Q2W dosing or at 240 mg and below for Q4W dosing) was “nonlinear”. Also, in data set [2] (steady state), the “AUCtau of 800 mg Q4W compared with 400 mg Q2W” value is “similar”. Besides, the “phagocytosis (percentage of THP-1 cells double positive for CFSE and CD11c)” value in data set [3] is “modest; also recorded: enhanced THP-1 cell phagocytosis of TIM-3+ Raji cells in a dose-dependent manner”. The “engagement of FcγR1a reporter cell line, luciferase activity” value with FcγR1a (CD64) was “modest dose-response engagement”. In addition, the “killing of THP-1 cells by anti-CD3 activated PBMCs” value in the data set on THP-1 AML cells was “further enhanced”.
